Laboratory results taken from paper PMC5451165, “Cellular levels of Grb2 and cytoskeleton stability are correlated in a neurodegenerative scenario” (Disease Models & Mechanisms, 2017).

Key:
Conditions in all cases: partners not purified
[1] = biological target: T1, Growth factor receptor bound protein 2 (Grb2), endogenous in SHSY-5Y cells (human (endogenous in SHSY-5Y), UniProt P62993 1-217); assay: co-IP; IP for Grb2 from cell lysate, blot with anti-NOX4 (reverse: IP for NOX4, blot with anti-Grb2); cells under control (GFP, DMSO, DsRed), AD-inducing (AICD, Aβ, DsRed), reversal (AICD, Aβ, Grb2-DsRed) and Grb2 knock-down (U6-Grb2) conditions
T1 construct: Grb2, endogenous in human neuroblastoma SHSY-5Y cells, precipitated with an anti-Grb2 antibody; source: endogenous, SHSY-5Y cell lysate

Grb2-DsRed construct = biological target: T2, Grb2-DsRed construct (UniProt P62993 1-217); assay: as above
T2 construct: Grb2 cloned into a DsRed-C1 vector; In the transfected cells endogenous Grb2 is present too, and the anti-Grb2 antibody would precipitate both; A C1 vector usually places the fluorescent protein at the N-terminus; source: SHSY-5Y, transiently transfected, in lysate

[2] = biological target: T3, Grb2, endogenous in mouse brain (mouse (endogenous in mouse brain), UniProt Q60631 1-217); assay: co-IP; Grb2 pull down from protein extracted from paraffinized brain sections of AD (APP/PS1) and WT mice, probed with anti-NOX4 antibody
T3 construct: Grb2, endogenous in mouse brain (APP/PS1 and WT mice), precipitated with an anti-Grb2 antibody; source: endogenous, protein extracted from paraffin-embedded brain sections of APP/PS1 (AD) and WT mice
T3 sequence (Q60631 whole entry): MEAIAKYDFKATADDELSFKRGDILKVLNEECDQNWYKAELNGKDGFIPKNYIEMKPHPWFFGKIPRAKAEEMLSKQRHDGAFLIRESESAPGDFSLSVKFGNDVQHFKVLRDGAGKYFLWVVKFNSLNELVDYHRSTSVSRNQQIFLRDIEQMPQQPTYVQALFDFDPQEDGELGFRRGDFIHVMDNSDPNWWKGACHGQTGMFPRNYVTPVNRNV

fold change of the co-precipitated interaction, AD conditions (AICD + Aβ) relative to control [1] [fold]	fold change of the co-precipitated interaction, reversal condition (AICD + Aβ + Grb2-DsRed) relative to control (Grb2-DsRed construct) [fold]	fold change of the co-precipitated interaction, AD mouse brain relative to wild type [2] [fold]	Binder
1.42	2.18	–	NOX4, endogenous in SHSY-5Y cells (natural protein, human (endogenous in SHSY-5Y), UniProt Q9NPH5 1-578, looked up, NOX4, endogenous in human neuroblastoma SHSY-5Y cells, detected with an anti-NOX4 antibody; source: endogenous, SHSY-5Y cell lysate) MAVSWRSWLANEGVKHLCLFIWLSMNVLLFWKTFLLYNQGPEYHYLHQMLGLGLCLSRASASVLNLNCSLILLPMCRTLLAYLRGSQKVPSRRTRRLLDKSRTFHITCGVTICIFSGVHVAAHLVNALNFSVNYSEDFVELNAARYRDEDPRKLLFTTVPGLTGVCMVVVLFLMITASTYAIRVSNYDIFWYTHNLFFVFYMLLTLHVSGGLLKYQTNLDTHPPGCISLNRTSSQNISLPEYFSEHFHEPFPEGFSKPAEFTQHKFVKICMEEPRFQANFPQTWLWISGPLCLYCAERLYRYIRSNKPVTIISVMSHPSDVMEIRMVKENFKARPGQYITLHCPSVSALENHPFTLTMCPTETKATFGVHLKIVGDWTERFRDLLLPPSSQDSEILPFIQSRNYPKLYIDGPFGSPFEESLNYEVSLCVAGGIGVTPFASILNTLLDDWKPYKLRRLYFIWVCRDIQSFRWFADLLCMLHNKFWQENRPDYVNIQLYLSQTDGIQKIIGEKYHALNSRLFIGRPRWKLLFDEIAKYNRGKTVGVFCCGPNSLSKTLHKLSNQNNSYGTRFEYNKESFS
–	–	1.49	NOX4, endogenous in mouse brain (natural protein, mouse (endogenous in mouse brain), UniProt Q9JHI8 1-578, looked up, NOX4, endogenous in mouse brain (APP/PS1 and WT mice), detected with an anti-NOX4 antibody; source: endogenous, protein extracted from paraffin-embedded brain sections of APP/PS1 (AD) and WT mice) MAVSWRSWLANEGVKHLCLLIWLSLNVLLFWKTFLLYNQGPEYYYIHQMLGLGLCLSRASASVLNLNCSLILLPMCRTVLAYLRGSQKVPSRRTRRLLDKSKTLHITCGVTICIFSGVHVAAHLVNALNFSVNYSEDFLELNAARYQNEDPRKLLFTTIPGLTGVCMVVVLFLMVTASTYAIRVSNYDIFWYTHNLFFVFYMLLLLHVSGGLLKYQTNVDTHPPGCISLNQTSSQNMSIPDYVSEHFHGSLPRGFSKLEDRYQKTLVKICLEEPKFQAHFPQTWIWISGPLCLYCAERLYRCIRSNKPVTIISVINHPSDVMELRMIKENFKARPGQYIILHCPSVSALENHPFTLTMCPTETKATFGVHFKVVGDWTERFRDLLLPPSSQDSEILPFIHSRNYPKLYIDGPFGSPFEESLNYEVSLCVAGGIGVTPFASILNTLLDDWKPYKLRRLYFIWVCRDIQSFQWFADLLCVLHNKFWQENRPDFVNIQLYLSQTDGIQKIIGEKYHTLNSRLFIGRPRWKLLFDEIAKCNRGKTVGVFCCGPSSISKTLHSLSNRNNSYGTKFEYNKESFS
